The results in this text go back to paper PMC6028960, “The kinetochore proteins CENP-E and CENP-F directly and specifically interact with distinct BUB mitotic checkpoint Ser/Thr kinases” (The Journal of Biological Chemistry, 2018).

Sequences and labels used below:
B1: mCherry-CENP-F(2922–2990) (domain or fragment, human, UniProt P49454 2826-2894, looked up)
chain: QKTGTVMDTKVDELTTEIKELKETLEEKTKEADEYLDKYCSLLISHEKLEKAKEMLETQVAHLCSQQSK
notes: Dimer by sedimentation velocity AUC; source: E. coli BL21 (DE3) RP plus, purified (HisTrap, Superdex 75 SEC); not shown: mCherry, N-terminal, kept
B2: eGFP-CENP-E^2070-C (domain or fragment, human, UniProt Q02224 2070-2701, looked up)
chain: RQNHQVKPEKRLLSDGQQHLTESLREKCSRIKELLKRYSEMDDHYECLNRLSLDLEKEIEFQKELSMRVKANLSLPYLQTKHIEKLFTANQRCSMEFHRIMKKLKYVLSYVTKIKEEQHESINKFEMDFIDEVEKQKELLIKIQHLQQDCDVPSRELRDLKLNQNMDLHIEEILKDFSESEFPSIKTEFQQVLSNRKEMTQFLEEWLNTRFDIEKLKNGIQKENDRICQVNNFFNNRIIAIMNESTEFEERSATISKEWEQDLKSLKEKNEKLFKNYQTLKTSLASGAQVNPTTQDNKNPHVTSRATQLTTEKIRELENSLHEAKESAMHKESKIIKMQKELEVTNDIIAKLQAKVHESNKCLEKTKETIQVLQDKVALGAKPYKEEIEDLKMKLVKIDLEKMKNAKEFEKEISATKATVEYQKEVIRLLRENLRRSQQAQDTSVISEHTDPQPSNKPLTCGGGSGIVQNTKALILKSEHIRLEKEISKLKQQNEQLIKQKNELLSNNQHLSNEVKTWKERTLKREAHKQVTCENSPKSPKVTGTASKKKQITPSQCKERNLQDPVPKESPKSCFFDSRSKSLPSPHPVRYFDNSSLGLCPEVQNAGAESVDSQPGPWHASSGKDVPECKTQ
notes: codon-optimized cDNA; N-terminal PreScission-cleavable His6-eGFP tag from the pLIB-eGFP vector; source: insect cells (baculovirus made in Sf9, Tnao38 infected), purified (HisTrap, Superose 6 SEC); not shown: eGFP, N-terminal, kept
B3: mCherry-CENP-F(2866–2990) (domain or fragment, human, UniProt P49454 2770-2894, looked up)
chain: LKKTKMDNLKYVNQLKKENERAQGKMKLLIKSCKQLEEEKEILQKELSQLQAAQEKQKTGTVMDTKVDELTTEIKELKETLEEKTKEADEYLDKYCSLLISHEKLEKAKEMLETQVAHLCSQQSK
notes: as for B1
B4: BUBR1 pseudokinase domain (KinD, residues 705–1050) (domain or fragment, human, UniProt O60566 705-1050, looked up)
chain: EKLELTNETSENPTQSPWCSQYRRQLLKSLPELSASAELCIEDRPMPKLEIEKEIELGNEDYCIKREYLICEDYKLFWVAPRNSAELTVIKVSSQPVPWDFYINLKLKERLNEDFDHFCSCYQYQDGCIVWHQYINCFTLQDLLQHSEYITHEITVLIIYNLLTIVEMLHKAEIVHGDLSPRCLILRNRIHDPYDCNKNNQALKIVDFSYSVDLRVQLDVFTLSGFRTVQILEGQKILANCSSPYQVDLFGIADLAHLLLFKEHLQVFWDGSFWKLSQNISELKDGELWNKFFVRILNANDEATVSVLGELAAEMNGVFDTTFQSHLNKALWKVGKLTSPGALLFQ
notes: human BUBR1, pseudokinase domain, residues 705-1050; also called BUBR1 pseudo-kinase domain (KinD) construct; BUBR1 KinD

Series [1] concerns the molecule itself. The experiment in a line: AUC; sedimentation velocity, 42,000 rpm, 20 °C; 6 μM mCherry-CENP-F fragment alone, scanned at 587 nm; self-association.
In series [2] the target is T1, BUBR1/BUB3 complex (human | , UniProt O60566 1-1050; O43684 1-328).
T1 construct: human BUB1-related (BUBR1) mitotic checkpoint Ser/Thr kinase, full-length, co-expressed with BUB3; BUB3, co-expressed with BUBR1; also called dimeric BUBR1/BUB3 complex
T1 sequence (O43684 whole entry, one chain of several): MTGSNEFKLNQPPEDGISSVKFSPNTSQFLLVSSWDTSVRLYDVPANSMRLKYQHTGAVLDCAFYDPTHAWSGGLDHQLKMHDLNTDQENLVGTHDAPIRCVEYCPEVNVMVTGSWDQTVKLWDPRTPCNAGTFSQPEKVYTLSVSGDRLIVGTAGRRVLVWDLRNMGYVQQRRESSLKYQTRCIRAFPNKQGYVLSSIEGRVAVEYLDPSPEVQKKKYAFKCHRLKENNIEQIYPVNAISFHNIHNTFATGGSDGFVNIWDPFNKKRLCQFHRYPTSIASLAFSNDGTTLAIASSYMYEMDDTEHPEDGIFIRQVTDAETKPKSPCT
Briefly: SEC; analytical SEC; 4 μM BUB1 or BUBR1 constructs or BUB1/BUB3 or BUBR1/BUB3 complexes mixed with 16 μM CENP-E or CENP-F proteins in 30 μl; 4 °C; Superose 6 5/150 or Superdex 75 5/150; 50 mM Hepes pH 8.0, 100 mM NaCl, 5% glycerol, 0.5 mM TCEP; fractions by SDS-PAGE. As to conditions: both partners purified. Background: In gel filtration, larger molecules generally elute earlier.

Series [3] deals with B2. Described as above. Particulars: both partners purified.

The term stoichiometry N denotes the number of molecules, sites or subunits per partner or assembly. On to B1, for which the “stoichiometry N” value in series [1] was determined as 2.

In the case of B2, the binding result in series [2] is on record as “binds”.

Turning to B3, the “stoichiometry N” value in series [1] came to 2.

On to B4, for which the binding result in series [3] is recorded as “binds”.
